Reference: patent US20050054012, “Methods of detecting and treating facioscapulohumeral muscular dystrophy” (published 2005)

How the values were obtained:
GST-YY1 [1] = biological target: T1, GST-YY1 (UniProt P25490 P25490:1-414); assay: EMSA; 50 mM KCl, pH 8, poly(dI-dC), on ice; details: tags: GST fusion, expressed in E. coli; label: 32P end
Description: (§1) The Kpnl-D4Z4 unit plasmid, used to generate EMSA probes for the experiments shown in FIGS. 2A-2C, was kindly provided by L. Felicetti. For the EMSA experiments shown in FIG. 4, oligonucleotide probes were prepared by end-labeling double-stranded oligonucleotides covering the region of the minimal binding site. The sequences of the oligonucleotides were as follows: WT, 5′-[…]-3′ (SEQ ID NO:1); MUT, 5′-CTCACCGCCgcc[…]-3′ (SEQ ID NO:2) (mutated nucleotides are shown in italics). DNA binding reactions were carried out in 20 μl of 10 mM HEPES (pH 8), 10% glycerol, 50 mM KCl, 0.1 mM EDTA, 0.25 mM DTT, 0.1 mg/ml poly (dl-dC), 0.1 mg/ml bovine serum albumin, 20,000 cpm of radiolabeled probe. The samples were incubated for 30 minutes on ice in the presence of the indicated nuclear extract or protein fraction. For competition assays, unlabeled probes were added to the reaction mixture at the same time as the labeled probe. For supershift assays, a binding reaction was assembled in the absence of radiolabeled probe. Antibodies were added to the binding reaction and the samples were incubated 15 minutes at room temperature. Radiolabled probe was added and the samples were incubated for additional 30 minutes on ice. Reaction mixtures were loaded in the cold room onto 6% native polyacrylamide gels containing 0.5×Tris-borate-EDTA (TBE) that had been preelectrophoresed for 30 minutes at 20 mA. […]

GST = GST (UniProt P08515 P08515:2-218); assay: EMSA; GST alone control; details: tags: GST alone, label: 32P end
Description: as §1

GST-YY1 [2] = biological target: T1, GST-YY1; assay: EMSA; YY1 core mutated; details: tags: GST fusion, expressed in E. coli; label: 32P end
Description: as §1

T1 sequence (P25490 whole entry, the tested form may be a part, one chain of several): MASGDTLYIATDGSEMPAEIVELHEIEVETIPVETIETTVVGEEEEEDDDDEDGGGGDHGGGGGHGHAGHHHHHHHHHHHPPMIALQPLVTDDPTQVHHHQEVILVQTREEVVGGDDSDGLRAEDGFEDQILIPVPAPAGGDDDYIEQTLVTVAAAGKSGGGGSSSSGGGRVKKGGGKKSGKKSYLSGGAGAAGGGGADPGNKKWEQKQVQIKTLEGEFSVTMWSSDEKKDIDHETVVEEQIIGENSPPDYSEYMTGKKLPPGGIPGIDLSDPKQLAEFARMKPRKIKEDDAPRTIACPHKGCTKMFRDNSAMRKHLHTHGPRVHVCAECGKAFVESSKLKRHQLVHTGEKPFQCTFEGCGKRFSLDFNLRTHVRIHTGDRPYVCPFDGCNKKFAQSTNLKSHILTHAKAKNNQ
GST, sequence (P08515 2-218, one chain of several): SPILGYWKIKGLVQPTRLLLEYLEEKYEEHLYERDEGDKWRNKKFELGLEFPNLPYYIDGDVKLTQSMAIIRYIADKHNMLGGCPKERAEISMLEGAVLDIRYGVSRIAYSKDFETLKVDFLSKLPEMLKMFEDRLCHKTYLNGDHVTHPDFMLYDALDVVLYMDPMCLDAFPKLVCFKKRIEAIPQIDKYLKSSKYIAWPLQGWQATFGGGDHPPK

B1: DBE WT probe (dsDNA)
DNA 1: CTCACCGCCATTCATGAAGGGGTGGAGCCTGCCTG
DNA 2: CAGGCAGGCTCCACCCCTTCATGAATGGCGGTGAG
GST-YY1 [1]
  binding result: binds
GST
  binding result: no binding

B2: DBE MUT probe (dsDNA)
DNA 1: CTCACCGCCGCCCATGAAGGGGTGGAGCCTGCCTG
DNA 2: CAGGCAGGCTCCACCCCTTCATGGGCGGCGGTGAG
GST-YY1 [2]
  binding result: no binding
